PMC8105722 (The Journal of Experimental Medicine, 2021)

Molecular target: the molecule itself
Test: crystal structure

B1: Rv0812 (Mycobacterium tuberculosis bifunctional aminodeoxychorismate lyase / D-amino acid transaminase) (enzyme)
chain: MVVTLDGEILQPGMPLLHADDLAAVRGDGVFETLLVRDGRACLVEAHLQRLTQSARLMDLPEPDLPRWRRAVEVATQRWVASTADEGALRLIYSRGREGGSAPTAYVMVSPVPARVIGARRDGVSAITLDRGLPADGGDAMPWLIASAKTLSYAVNMAVLRHAARQGAGDVIFVSTDGYVLEGPRSTVVIATDGDQGGGNPCLLTPPPWYPILRGTTQQALFEVARAKGYDCDYRALRVADLFDSQGIWLVSSMTLAARVHTLDGRRLPRTPIAEVFAELVDAAIVSDR
notes: also called Mtb Rv0812; WT-Rv0812
- stoichiometry N: 2
